The target in series [1] is T1, SSTR2 (Homo sapiens, UniProt P30874).
T1 construct: host or cells: CHO-K1
Briefly: Radio-ligand binding assay, SSTR2. On the procedure:
(§1) Graphical and tabular representation of the percentage inhibition of specific binding, as IC50 (nM) binding values for the analogues against the five SSTR1-SSTR5 is represented in Supplementary Fig. 1b and Supplementary Table 1. […] IC50 values were determined by a non-linear, least squares regression analysis using Prism 9 (GraphPad Software, USA), using the Dose-response inhibition (three-parameters) model. […]
(§2) (SSTR1-SSTR5), using a Radio-ligand Binding Assay (Supplementary Figure 1b). Cells were incubated in HEPES buffer pH 7.4 with the new analogues of Cortistatin at 10 different concentrations in a range […]
(§3) specifically bound (performed at Eurofins Panlabs, Inc.). The radioactivity obtained in the absence of SST14 is considered as total binding and that obtained in the presence of 1 µM of SST14 is considered as nonspecific binding. Specific binding was considered as the difference between total and nonspecific.
(§4) Biochemical assay results are presented as the percent inhibition of specific bindin g (% inhib ition) as a […]
(§5) part of each binding assay with the five (SSTR1 -SS T R5 ) . I C50 values were determined by a non-linear, least squares regression analysis using Prism 9 (GraphPad Software, USA), using the Dose -response inhibit ion (t hree-parameters) model.

Series [2] has as its target T2, SSTR3 (Homo sapiens, UniProt P32745).
T2 construct: host or cells: CHO-K1
Briefly: Radio-ligand binding assay, SSTR3. How it is done: as §1, §2, §3, §4, §5

Series [3] deals with T3, SSTR1 (Homo sapiens, UniProt P30872).
T3 construct: host or cells: CHO-K1
Briefly: Radio-ligand binding assay, SSTR1. On the procedure:
as §1, §2, §3, §4, §5

The target of series [4] is Somatostatin receptor 3 (SSTR3) (human), P32745. The series is described as follows: competition with 125I-Tyr11 SST14.
In series [5] the target is Somatostatin receptor 5 (SSTR5) (human), P35346. Briefly: competition with 125I-Tyr11 SST14. The conditions noted are these: D-Trp at position 7, disulfide bridge between the two cysteines.
Series [6] has as its target Somatostatin receptor 1 (SSTR1) (human), P30872. The series is described as follows: competition with 125I-Tyr11 SST14. The conditions noted are these: D-Trp at position 7, disulfide bridge between the two cysteines.
Series [7] addresses Somatostatin receptor 2 (SSTR2) (human), P30874. The series is described as follows: competition with 125I-Tyr11 SST14. The conditions noted are these: D-Trp at position 7, disulfide bridge between the two cysteines.
For series [8], the target named is Somatostatin receptor 5 (SSTR5) (human), P35346. The conditions noted are these: octanoyl moiety at the N-terminus (N-octanoyl amide); L-mesityl alanine (Msa) at position 5; D-Trp at position 7; disulfide bridge between the two cysteines.
For series [9], the target named is Somatostatin receptor 1 (SSTR1) (human), P30872. The conditions noted are these: octanoyl moiety at the N-terminus (N-octanoyl amide); L-mesityl alanine (Msa) at position 5; D-Trp at position 7; disulfide bridge between the two cysteines.
The target in series [10] is Somatostatin receptor 3 (SSTR3) (human), P32745. The conditions noted are these: octanoyl moiety at the N-terminus (N-octanoyl amide); L-mesityl alanine (Msa) at position 5; D-Trp at position 7; disulfide bridge between the two cysteines.
For series [11], the target named is Somatostatin receptor 2 (SSTR2) (human), P30874. The conditions noted are these: octanoyl moiety at the N-terminus (N-octanoyl amide); L-mesityl alanine (Msa) at position 5; D-Trp at position 7; disulfide bridge between the two cysteines.
Series [12] deals with Somatostatin receptor 5 (SSTR5) (human), P35346. The conditions noted are these: N-octanoyl amide on the N-terminal residue; L-mesityl alanine (Msa) at position 6; D-Trp at position 7; disulfide bridge between the two cysteines.
The target in series [13] is Somatostatin receptor 2 (SSTR2) (human), P30874. The conditions noted are these: N-octanoyl amide on the N-terminal residue; L-mesityl alanine (Msa) at position 6; D-Trp at position 7; disulfide bridge between the two cysteines.
The target of series [14] is Somatostatin receptor 3 (SSTR3) (human), P32745. The conditions noted are these: N-octanoyl amide on the N-terminal residue; L-mesityl alanine (Msa) at position 6; D-Trp at position 7; disulfide bridge between the two cysteines.
Series [15] deals with Somatostatin receptor 1 (SSTR1) (human), P30872. The conditions noted are these: N-octanoyl amide on the N-terminal residue; L-mesityl alanine (Msa) at position 6; D-Trp at position 7; disulfide bridge between the two cysteines.
In series [16] the target is Somatostatin receptor 5 (SSTR5) (human), P35346. The conditions noted are these: L-mesityl alanine (2,4,6-trimethylphenylalanine, Msa) in place of Phe6; D-Trp at position 7; disulfide bridge between the two cysteines.
In series [17] the target is Somatostatin receptor 2 (SSTR2) (human), P30874. The conditions noted are these: L-mesityl alanine (2,4,6-trimethylphenylalanine, Msa) in place of Phe6; D-Trp at position 7; disulfide bridge between the two cysteines.
In series [18] the target is Somatostatin receptor 3 (SSTR3) (human), P32745. The conditions noted are these: L-mesityl alanine (2,4,6-trimethylphenylalanine, Msa) in place of Phe6; D-Trp at position 7; disulfide bridge between the two cysteines.
The target of series [19] is Somatostatin receptor 1 (SSTR1) (human), P30872. The conditions noted are these: L-mesityl alanine (2,4,6-trimethylphenylalanine, Msa) in place of Phe6; D-Trp at position 7; disulfide bridge between the two cysteines.
Series [20] concerns the target Somatostatin receptor 4 (SSTR4) (human), P31391. The conditions noted are these: chains peptide; internal disulfide bond between the two cysteines (cyclic peptide).
Series [21] deals with Somatostatin receptor 2 (SSTR2) (human), P30874. The conditions noted are these: chains peptide; internal disulfide bond between the two cysteines (cyclic peptide).
Series [22] deals with Somatostatin receptor 1 (SSTR1) (human), P30872. The conditions noted are these: chains peptide; internal disulfide bond between the two cysteines (cyclic peptide).
The target of series [23] is Somatostatin receptor 5 (SSTR5) (human), P35346. The conditions noted are these: chains peptide; internal disulfide bond between the two cysteines (cyclic peptide).
For series [24], the target named is Somatostatin receptor 2 (SSTR2) (human), P30874. The conditions noted are these: L-mesityl alanine (Msa) in place of Phe5; D-Trp at position 7; disulfide bridge between the two cysteines.
Series [25] addresses Somatostatin receptor 1 (SSTR1) (human), P30872. The conditions noted are these: L-mesityl alanine (Msa) in place of Phe5; D-Trp at position 7; disulfide bridge between the two cysteines.
Series [26] addresses Somatostatin receptor 3 (SSTR3) (human), P32745. The conditions noted are these: L-mesityl alanine (Msa) in place of Phe5; D-Trp at position 7; disulfide bridge between the two cysteines.
For series [27], the target named is Somatostatin receptor 5 (SSTR5) (human), P35346. The conditions noted are these: L-mesityl alanine (Msa) in place of Phe5; D-Trp at position 7; disulfide bridge between the two cysteines.
Where [28] appears, read: octanoyl moiety at the N-terminus (N-octanoyl amide), L-mesityl alanine (Msa) at position 5.
Setting [29] is: N-octanoyl amide on the N-terminal residue, L-mesityl alanine (Msa) at position 6.
The mark [30] stands for this setting: L-mesityl alanine (2,4,6-trimethylphenylalanine, Msa) in place of Phe6.
[31] abbreviates: L-mesityl alanine (Msa) in place of Phe5.

Like-named read-outs stand apart in the source and are kept apart here. Bridges are numbered along the chain shown (N, C = ends). Where no end group is shown, it is not given here.

Chain of Somatostatin receptor 1 (SSTR1) (human), P30872 (P30872 whole entry): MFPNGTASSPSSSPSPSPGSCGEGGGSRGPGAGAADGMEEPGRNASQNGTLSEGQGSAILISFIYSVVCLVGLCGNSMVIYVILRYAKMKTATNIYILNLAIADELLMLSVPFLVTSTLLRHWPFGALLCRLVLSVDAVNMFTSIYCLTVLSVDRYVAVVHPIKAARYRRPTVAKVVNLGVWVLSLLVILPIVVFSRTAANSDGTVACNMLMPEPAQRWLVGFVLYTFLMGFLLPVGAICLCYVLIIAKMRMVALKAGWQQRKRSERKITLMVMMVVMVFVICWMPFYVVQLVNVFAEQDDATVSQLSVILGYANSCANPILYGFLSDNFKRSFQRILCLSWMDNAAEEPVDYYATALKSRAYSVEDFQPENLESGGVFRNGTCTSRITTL
Chain of Somatostatin receptor 2 (SSTR2) (human), P30874 (P30874 whole entry): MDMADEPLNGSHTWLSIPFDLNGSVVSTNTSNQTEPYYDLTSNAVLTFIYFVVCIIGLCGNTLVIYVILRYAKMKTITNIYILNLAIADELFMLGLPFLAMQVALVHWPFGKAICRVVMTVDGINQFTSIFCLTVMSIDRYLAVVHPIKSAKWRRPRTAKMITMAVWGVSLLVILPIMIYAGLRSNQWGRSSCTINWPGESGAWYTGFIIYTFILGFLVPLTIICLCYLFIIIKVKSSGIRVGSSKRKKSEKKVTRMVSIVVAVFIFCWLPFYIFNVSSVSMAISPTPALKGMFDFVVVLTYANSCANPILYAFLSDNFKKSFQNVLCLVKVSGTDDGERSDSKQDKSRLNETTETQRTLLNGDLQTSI
Chain of Somatostatin receptor 5 (SSTR5) (human), P35346 (P35346 whole entry): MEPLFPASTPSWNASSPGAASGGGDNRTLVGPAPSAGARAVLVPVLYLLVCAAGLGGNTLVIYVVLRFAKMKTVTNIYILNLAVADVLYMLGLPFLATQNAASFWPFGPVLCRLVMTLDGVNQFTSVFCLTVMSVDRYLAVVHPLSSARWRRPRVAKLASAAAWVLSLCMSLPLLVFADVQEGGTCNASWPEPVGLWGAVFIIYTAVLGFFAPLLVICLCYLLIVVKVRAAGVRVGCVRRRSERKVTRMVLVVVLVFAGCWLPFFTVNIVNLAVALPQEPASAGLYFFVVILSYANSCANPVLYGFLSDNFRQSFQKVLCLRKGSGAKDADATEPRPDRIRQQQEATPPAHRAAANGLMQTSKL
Chain of Somatostatin receptor 3 (SSTR3) (human), P32745 (P32745 whole entry): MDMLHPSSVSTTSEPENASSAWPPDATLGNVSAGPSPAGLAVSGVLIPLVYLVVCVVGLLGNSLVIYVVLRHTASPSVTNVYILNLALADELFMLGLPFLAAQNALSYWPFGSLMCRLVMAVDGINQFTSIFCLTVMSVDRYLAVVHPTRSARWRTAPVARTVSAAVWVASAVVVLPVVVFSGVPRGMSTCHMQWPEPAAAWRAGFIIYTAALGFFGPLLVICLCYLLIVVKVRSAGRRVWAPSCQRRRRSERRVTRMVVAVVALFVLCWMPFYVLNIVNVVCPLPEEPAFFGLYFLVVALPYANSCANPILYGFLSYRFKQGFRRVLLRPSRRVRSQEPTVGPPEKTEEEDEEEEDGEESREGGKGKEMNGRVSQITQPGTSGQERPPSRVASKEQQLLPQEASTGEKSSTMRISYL
T1 sequence (P30874 whole entry): as the sequence (P30874 whole entry) above
T3 sequence (P30872 whole entry): as the sequence (P30872 whole entry) above
Chain of Somatostatin receptor 4 (SSTR4) (human), P31391 (P31391 whole entry): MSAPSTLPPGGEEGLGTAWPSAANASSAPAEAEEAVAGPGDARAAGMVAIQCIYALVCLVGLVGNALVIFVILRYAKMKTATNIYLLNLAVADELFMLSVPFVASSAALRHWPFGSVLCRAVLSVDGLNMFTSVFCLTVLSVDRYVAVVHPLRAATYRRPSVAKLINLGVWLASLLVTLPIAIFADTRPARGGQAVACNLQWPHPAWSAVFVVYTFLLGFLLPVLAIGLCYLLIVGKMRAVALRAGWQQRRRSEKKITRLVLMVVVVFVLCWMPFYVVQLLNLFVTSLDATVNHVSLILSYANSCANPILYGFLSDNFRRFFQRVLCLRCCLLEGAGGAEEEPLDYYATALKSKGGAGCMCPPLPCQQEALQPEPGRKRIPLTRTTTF
T2 sequence (P32745 whole entry): as the sequence (P32745 whole entry) above

PCKNFFWKTFSSCK: the cleaved bond result is recorded as “Cys13-L-Lys14, major”.

Usually IC50 stands for the concentration that gives 50% inhibition. The molecule `CCCCCCCC(=O)N1CCC[C@H]1C(=O)N[C@H]1CSSC[C@@H](C(=O)N[C@@H](CCCCN)C(=O)O)NC(=O)[C@H](CO)NC(=O)[C@H]([C@@H](C)O)NC(=O)[C@H](Cc2ccccc2)NC(=O)[C@H]([C@@H](C)O)NC(=O)[C@H](CCCCN)NC(=O)[C@@H](Cc2c[nH]c3ccccc23)NC(=O)[C@H](Cc2c(C)cc(C)cc2C)NC(=O)[C@H](Cc2ccccc2)NC(=O)[C@H](CC(N)=O)NC(=O)[C@H](CCCCN)NC1=O` [A3] had an IC50 in series [1] of 2.8 nM.

As for `Cc1cc(C)c(C[C@@H]2NC(=O)[C@H](Cc3ccccc3)NC(=O)[C@H](CC(N)=O)NC(=O)[C@H](CCCCN)NC(=O)[C@@H](NC(=O)[C@@H]3CCCN3)CSSC[C@@H](C(=O)N[C@@H](CCCCN)C(=O)O)NC(=O)[C@H](CO)NC(=O)[C@H]([C@@H](C)O)NC(=O)[C@H](Cc3ccccc3)NC(=O)[C@H]([C@@H](C)O)NC(=O)[C@H](CCCCN)NC(=O)[C@@H](Cc3c[nH]c4ccccc34)NC2=O)c(C)c1` [A2], the 50% inhibitory concentration (IC50) in [2] amounted to 16 nM; in [1], 0.42 nM; in series [3] it was 14.1 nM.

B1: Cortistatin analogue 5 (peptide)
chain: PCKNFFWKTFTSCK
In the case of B1, the half-inhibitory concentration (IC50) turned out to be 5.1 nM in series [4] (octanoyl moiety at the N-terminus (N-octanoyl amide), L-mesityl alanine (Msa) at position 5, D-Trp at position 7, disulfide bridge between the two cysteines); 1.12 nM in series [5] (setting [28]); 47.3 nM in [6] (setting [28]); 35 nM in [7] (setting [28]); 1.12 nM in series [8]; 47.3 nM in series [9]. Further, the IC50 in series [10] turned out to be 5.1 nM; in series [11], 35 nM.

B2: Cortistatin analogue 3 (peptide)
chain: PCKNFFWKTFTSCK
Turning to B2, the IC50 was 100 nM in series [4] (N-octanoyl amide on the N-terminal residue, L-mesityl alanine (Msa) at position 6, D-Trp at position 7, disulfide bridge between the two cysteines); above 300 nM in [5] (setting [29]); above 300 nM in [6] (setting [29]); 2.8 nM in series [7] (setting [29]); above 300 nM in series [12]; 2.8 nM in series [13]. The results for the IC50 in series [14] and in series [15] were 100 nM and above 300 nM, respectively.

B3: Cortistatin analogue 2 (peptide)
chain: PCKNFFWKTFTSCK
For B3, the half-inhibitory concentration (IC50) stood at 16 nM in [4] (L-mesityl alanine (2,4,6-trimethylphenylalanine, Msa) in place of Phe6, D-Trp at position 7, disulfide bridge between the two cysteines); 33 nM in [5] (setting [30]); 14.1 nM in [6] (setting [30]); 0.42 nM in series [7] (setting [30]); 33 nM in series [16]; 0.42 nM in series [17]. The concentration for half-maximal inhibition (IC50) was 16 nM in series [18] and 14.1 nM in series [19].

B4: Cortistatin-14 (r,mCST-14), Q62949 99-112 (peptide)
chain: PCKNFFWKTFSSCK
modifications: disulfide 2-13 (inferred)
For the molecule B4, the IC50 in series [4] (chains peptide, internal disulfide bond between the two cysteines (cyclic peptide)) came out at 0.3 nM; in series [20], 0.2 nM; in [21], 0.09 nM; in series [22], 1.7 nM; in series [23] it was 0.3 nM.

B5: Cortistatin analogue 4 (peptide)
chain: PCKNFFWKTFTSCK
For B5, the concentration for half-maximal inhibition (IC50) was 1.8 nM in [4] (L-mesityl alanine (Msa) in place of Phe5, D-Trp at position 7, disulfide bridge between the two cysteines); 4 nM in series [5] (setting [31]); 14.7 nM in series [6] (setting [31]); 9.8 nM in series [7] (setting [31]); 9.8 nM in [24]; 14.7 nM in series [25]. Moreover, the IC50 in [26] came to 1.8 nM; in series [27], 4 nM.
